{
  "source": "paper PMC4316190",
  "about": "“Crystal structure of UbiX, an aromatic acid decarboxylase from the psychrophilic bacterium Colwellia psychrerythraea that undergoes FMN-induced conformational changes” (Scientific Reports, 2015)",
  "key": {"CpsUbiX": {"molecular_target": "T1, CpsUbiX (Colwellia psychrerythraea, UniProt Q489U8)", "T1 construct": "gene ubiX; full length, residues 1-206, pET-28a(+) NdeI/XhoI, E. coli BL21(DE3), His-tag cleaved with thrombin, dodecamer; FMN site formed by three neighbouring subunits", "test": "X-ray crystal structure, […] Å", "format": "binding", "settings": "co-purified from E. coli; crystals at pH 5.8; site at the interface of three subunits"}, "[1]": {"molecular_target": "the molecule itself", "test": "crystal structure; wild type CpsUbiX with bound FMN; space group C222(1), 6 monomers in the asymmetric unit, dodecamer generated by crystallographic symmetry; 200 mM NaCl, 100 mM potassium/sodium phosphate pH 5.8, 11% PEG-8000; 1.9 Å"}, "[2]": {"molecular_target": "the molecule itself", "test": "crystal structure; V47S mutant CpsUbiX without FMN; space group P23, one molecule in the asymmetric unit, dodecamer generated by crystallographic symmetry; 0.1 M tri-sodium citrate pH 5.4, 0.5 M ammonium sulfate, 1.2 M lithium sulfate, 293 K; 1.76 Å"}},
  "data": [
    {"molecule": "Cc1cc2nc3c(=O)[nH]c(=O)nc-3n(C[C@H](O)[C@H](O)[C@H](O)COP(=O)(O)O)c2cc1C", "note": "[FMN]", "values": [
      {"measurement": "X-ray crystal structure, 1.9 Å", "setting": "CpsUbiX", "value": "FMN-bound (wild type) and FMN-free (V47S mutant) CpsUbiXs were deposited in the Protein Data Bank"}
    ]},
    {"molecule": "Colwellia psychrerythraea 34H UbiX protein (CpsUbiX), wild type, FMN-bound form (enzyme, UniProt Q489U8 1-206, looked up, UbiX (3-octaprenyl-4-hydroxybenzoate carboxylase) of Colwellia psychrerythraea strain 34H (ATCC BAA-681), UniProt Q489U8, full-length gene, residues 1-206; Cloned between the NdeI and XhoI sites of pET-28a(+); the His-tag was cleaved with thrombin, so a few vector residues probably remain at the N-terminus (surmised); also called 3-octaprenyl-4-hydroxybenzoate carboxylase; wild type CpsUbiX; …) MNNDFNGKITLAITGASGASYAMRLIECLIAANYQLYILCSSAGRIVLDTEVGVKIPSSPDAASKFLTEKYQAKDQQITVFGKEQWFSPVASGSSAPKQMVVCPCSTGTMAAICHGMSDNLIERAADVVIKERGQLILMVRETPFSTLHLQNMLSLSQQGVTIMPASPGFYHKVETIEDLIDFMVGRVLDHLGIEQDIMPRWGYNI", "values": [
      {"measurement": "stoichiometry N", "setting": "[1]", "value": 12}
    ]},
    {"molecule": "V47S mutant CpsUbiX (FMN-free form) (enzyme, Colwellia psychrerythraea 34H, UniProt Q489U8 1-206, looked up, UbiX (3-octaprenyl-4-hydroxybenzoate carboxylase) of Colwellia psychrerythraea strain 34H, UniProt Q489U8, residues 1-206, with V47S; it was expressed and purified as the wild type; also called V47S CpsUbiX; FMN-free CpsUbiX; source: E. coli BL21 (DE3), purified by methods similar to the wild type (Ni-NTA, thrombin cleavage, Superdex-200 SEC); copies: 12) MNNDFNGKITLAITGASGASYAMRLIECLIAANYQLYILCSSAGRISLDTEVGVKIPSSPDAASKFLTEKYQAKDQQITVFGKEQWFSPVASGSSAPKQMVVCPCSTGTMAAICHGMSDNLIERAADVVIKERGQLILMVRETPFSTLHLQNMLSLSQQGVTIMPASPGFYHKVETIEDLIDFMVGRVLDHLGIEQDIMPRWGYNI", "values": [
      {"measurement": "stoichiometry N", "setting": "[2]", "value": 12}
    ]}
  ]
}
